Reference: PMC5930937

Target: Cav3.1-GFP wild type (human) (UniProt O43497)
UniProt O43497, sequence (O43497 whole entry): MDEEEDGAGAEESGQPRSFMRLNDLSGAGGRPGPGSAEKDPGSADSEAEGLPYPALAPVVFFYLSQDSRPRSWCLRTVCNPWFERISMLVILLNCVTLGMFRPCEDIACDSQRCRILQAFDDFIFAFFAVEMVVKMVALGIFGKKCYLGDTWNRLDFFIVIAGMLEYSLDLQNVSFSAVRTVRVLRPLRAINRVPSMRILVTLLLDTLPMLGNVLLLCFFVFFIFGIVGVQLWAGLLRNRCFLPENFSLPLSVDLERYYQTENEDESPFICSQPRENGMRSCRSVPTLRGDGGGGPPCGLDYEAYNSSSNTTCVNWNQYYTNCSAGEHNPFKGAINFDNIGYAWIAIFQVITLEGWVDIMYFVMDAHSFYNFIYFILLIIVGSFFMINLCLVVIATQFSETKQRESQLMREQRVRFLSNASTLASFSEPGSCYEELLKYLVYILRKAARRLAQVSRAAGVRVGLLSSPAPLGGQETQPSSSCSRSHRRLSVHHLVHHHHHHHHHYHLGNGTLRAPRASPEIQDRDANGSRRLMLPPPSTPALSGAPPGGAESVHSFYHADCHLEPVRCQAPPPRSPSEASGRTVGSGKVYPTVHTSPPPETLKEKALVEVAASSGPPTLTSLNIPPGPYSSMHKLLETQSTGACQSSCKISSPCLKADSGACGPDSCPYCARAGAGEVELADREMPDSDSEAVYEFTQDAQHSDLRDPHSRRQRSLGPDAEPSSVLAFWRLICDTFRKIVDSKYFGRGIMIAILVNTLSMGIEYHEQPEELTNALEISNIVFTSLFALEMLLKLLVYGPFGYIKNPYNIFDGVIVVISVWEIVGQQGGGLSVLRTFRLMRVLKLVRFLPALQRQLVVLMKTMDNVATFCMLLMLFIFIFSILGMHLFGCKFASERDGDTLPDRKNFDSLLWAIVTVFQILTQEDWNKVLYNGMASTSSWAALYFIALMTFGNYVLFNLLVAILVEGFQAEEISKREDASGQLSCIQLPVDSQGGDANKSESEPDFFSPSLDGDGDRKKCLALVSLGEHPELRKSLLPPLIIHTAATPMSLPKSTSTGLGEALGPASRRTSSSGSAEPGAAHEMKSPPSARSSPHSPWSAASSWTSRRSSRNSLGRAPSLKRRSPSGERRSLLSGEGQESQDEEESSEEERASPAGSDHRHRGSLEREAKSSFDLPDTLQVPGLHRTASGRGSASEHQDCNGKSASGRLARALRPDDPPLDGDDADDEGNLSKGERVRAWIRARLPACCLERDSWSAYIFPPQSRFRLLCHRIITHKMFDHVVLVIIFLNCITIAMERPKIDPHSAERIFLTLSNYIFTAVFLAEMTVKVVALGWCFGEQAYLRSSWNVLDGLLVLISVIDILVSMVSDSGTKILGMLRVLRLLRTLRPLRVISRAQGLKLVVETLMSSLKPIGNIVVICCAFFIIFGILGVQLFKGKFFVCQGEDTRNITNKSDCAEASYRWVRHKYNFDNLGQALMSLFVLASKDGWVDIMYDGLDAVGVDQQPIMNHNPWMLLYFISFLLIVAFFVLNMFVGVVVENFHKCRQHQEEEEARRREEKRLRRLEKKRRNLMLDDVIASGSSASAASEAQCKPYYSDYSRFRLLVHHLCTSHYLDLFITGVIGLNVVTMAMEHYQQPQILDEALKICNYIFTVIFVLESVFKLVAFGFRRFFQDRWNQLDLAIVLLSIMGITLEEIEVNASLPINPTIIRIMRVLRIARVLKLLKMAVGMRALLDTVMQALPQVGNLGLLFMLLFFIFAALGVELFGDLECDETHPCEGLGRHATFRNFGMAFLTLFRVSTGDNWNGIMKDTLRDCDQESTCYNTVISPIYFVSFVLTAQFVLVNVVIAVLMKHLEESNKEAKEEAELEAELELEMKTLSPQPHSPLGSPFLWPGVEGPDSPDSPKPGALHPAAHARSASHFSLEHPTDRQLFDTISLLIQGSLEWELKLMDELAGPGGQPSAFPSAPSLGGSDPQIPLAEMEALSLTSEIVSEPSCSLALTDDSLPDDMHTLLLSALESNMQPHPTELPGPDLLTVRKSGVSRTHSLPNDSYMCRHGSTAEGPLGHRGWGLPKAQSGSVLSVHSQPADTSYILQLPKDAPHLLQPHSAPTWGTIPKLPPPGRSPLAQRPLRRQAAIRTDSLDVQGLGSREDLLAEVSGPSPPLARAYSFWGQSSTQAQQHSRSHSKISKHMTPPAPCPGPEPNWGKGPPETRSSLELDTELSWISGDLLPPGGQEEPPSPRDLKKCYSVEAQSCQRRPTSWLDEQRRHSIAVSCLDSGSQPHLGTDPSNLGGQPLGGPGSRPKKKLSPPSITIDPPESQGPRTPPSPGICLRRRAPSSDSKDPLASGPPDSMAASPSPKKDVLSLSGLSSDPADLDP

spectrin αII (SPTAN1), tsA-201 cells, Q13813 1-2472
cell surface expression of Cav3.1 (surface biotinylation, tsA-201 cells) in the presence of the cell permeant Tat-Cav3.1-CT disruptor peptide against a scrambled Tat peptide: 40%
